Key:
[1] = tested on: T1, Nc1nc2c(ncn2[C@@H]2O[C@H](COP(=O)(O)OP(=O)(O)OP(=O)(O)O)[C@@H](O)[C@H]2O)c(=O)[nH]1; test: multiple turnover radioactive charcoal GTPase assay, Michaelis-Menten fit; format: biochemical, C. tepidum; details: 100 nM protein, 50 mM NaCl, 20 mM Tris/HCl, 10 mM MgCl2, 1 mM DTT, 0.5 mg/ml BSA, pH 7.5, 25°C, labelled compound (gamma-32P)
T1 construct: Roc-COR-kinase fragment, AA 1334-2147, N-terminal His-tag, expressed in Sf9 cells, Ni-NTA purified

[2] = tested on: T1, Nc1nc2c(ncn2[C@@H]2O[C@H](COP(=O)(O)OP(=O)(O)OP(=O)(O)O)[C@@H](O)[C@H]2O)c(=O)[nH]1; test: as above; format: biochemical, Chlorobaculum tepidum; details: 100 nM protein, 50 mM NaCl, 20 mM Tris/HCl, 10 mM MgCl2, 1 mM DTT, 0.5 mg/ml BSA, pH 7.5, 25°C, labelled compound (gamma-32P)

Chain of LRRK2 Roc-COR-kinase fragment (Homo sapiens) (chain, as listed by the source): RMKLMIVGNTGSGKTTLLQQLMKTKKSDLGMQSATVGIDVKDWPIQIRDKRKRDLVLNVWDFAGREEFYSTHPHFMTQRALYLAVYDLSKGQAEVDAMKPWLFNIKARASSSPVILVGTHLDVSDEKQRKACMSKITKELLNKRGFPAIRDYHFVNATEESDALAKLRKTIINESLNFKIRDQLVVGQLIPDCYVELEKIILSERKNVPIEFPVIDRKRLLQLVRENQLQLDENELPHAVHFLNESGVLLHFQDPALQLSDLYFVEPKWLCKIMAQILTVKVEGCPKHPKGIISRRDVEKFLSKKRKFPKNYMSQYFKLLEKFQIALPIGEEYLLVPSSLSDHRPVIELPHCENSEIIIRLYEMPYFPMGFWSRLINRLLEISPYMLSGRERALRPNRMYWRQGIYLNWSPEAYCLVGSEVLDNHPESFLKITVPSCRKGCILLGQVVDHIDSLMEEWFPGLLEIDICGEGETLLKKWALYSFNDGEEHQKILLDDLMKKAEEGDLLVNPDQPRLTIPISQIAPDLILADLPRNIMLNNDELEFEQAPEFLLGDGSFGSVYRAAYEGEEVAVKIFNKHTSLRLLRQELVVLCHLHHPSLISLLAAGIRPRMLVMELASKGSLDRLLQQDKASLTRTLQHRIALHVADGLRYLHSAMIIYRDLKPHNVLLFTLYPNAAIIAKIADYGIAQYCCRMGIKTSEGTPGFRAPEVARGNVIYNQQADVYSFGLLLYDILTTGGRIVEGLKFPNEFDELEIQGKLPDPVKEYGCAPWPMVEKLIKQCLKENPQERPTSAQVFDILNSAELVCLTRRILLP
Chain of LRRK2 Roc-COR-kinase fragment (Homo sapiens; R1441C) (chain, as listed by the source R1441C): as the sequence (chain, as listed by the source) above, with R108C counted along it

Row | Substance | Km [1] | kcat [1] | Km [2] | kcat [2]
1 | LRRK2 Roc-COR-kinase fragment (Homo sapiens) | 343 µM | 0.013 s⁻¹ |  | 
2 | LRRK2 Roc-COR-kinase fragment (Homo sapiens; R1441C) |  |  | 541 µM | 0.00617 s⁻¹

Source: publication PMC4721548, “Conformational heterogeneity of the Roc domains in C. tepidum Roc–COR and implications for human LRRK2 Parkinson mutations” (Bioscience Reports, 2015)
